{"source": "paper PMC3261159", "target": "14-3-3ζ (UniProt P63104)", "assay": "anti-HA co-IP, Myc Western blot", "conditions": "reference: wild-type Myc-Stat3 (688–770); sites S727"}
{"substance": "Stat3 C-terminal region, 688-770 (from UniProt P40763) S727A", "values": [{"measurement": "binding against the reference", "value": "lost"}]}
